Assay [1] has as its target T1, human CD45RC (human, UniProt P08575 26-1306).
T1 construct: In flow cytometry the protein is on human PBMC (which may also carry other CD45 isoforms with the C determinant); in the SPR assay it is in solubilised membranes of CD45RC-high PBMC or of CHO cells transfected with CD45RC; also called hCD45RC
T1 sequence: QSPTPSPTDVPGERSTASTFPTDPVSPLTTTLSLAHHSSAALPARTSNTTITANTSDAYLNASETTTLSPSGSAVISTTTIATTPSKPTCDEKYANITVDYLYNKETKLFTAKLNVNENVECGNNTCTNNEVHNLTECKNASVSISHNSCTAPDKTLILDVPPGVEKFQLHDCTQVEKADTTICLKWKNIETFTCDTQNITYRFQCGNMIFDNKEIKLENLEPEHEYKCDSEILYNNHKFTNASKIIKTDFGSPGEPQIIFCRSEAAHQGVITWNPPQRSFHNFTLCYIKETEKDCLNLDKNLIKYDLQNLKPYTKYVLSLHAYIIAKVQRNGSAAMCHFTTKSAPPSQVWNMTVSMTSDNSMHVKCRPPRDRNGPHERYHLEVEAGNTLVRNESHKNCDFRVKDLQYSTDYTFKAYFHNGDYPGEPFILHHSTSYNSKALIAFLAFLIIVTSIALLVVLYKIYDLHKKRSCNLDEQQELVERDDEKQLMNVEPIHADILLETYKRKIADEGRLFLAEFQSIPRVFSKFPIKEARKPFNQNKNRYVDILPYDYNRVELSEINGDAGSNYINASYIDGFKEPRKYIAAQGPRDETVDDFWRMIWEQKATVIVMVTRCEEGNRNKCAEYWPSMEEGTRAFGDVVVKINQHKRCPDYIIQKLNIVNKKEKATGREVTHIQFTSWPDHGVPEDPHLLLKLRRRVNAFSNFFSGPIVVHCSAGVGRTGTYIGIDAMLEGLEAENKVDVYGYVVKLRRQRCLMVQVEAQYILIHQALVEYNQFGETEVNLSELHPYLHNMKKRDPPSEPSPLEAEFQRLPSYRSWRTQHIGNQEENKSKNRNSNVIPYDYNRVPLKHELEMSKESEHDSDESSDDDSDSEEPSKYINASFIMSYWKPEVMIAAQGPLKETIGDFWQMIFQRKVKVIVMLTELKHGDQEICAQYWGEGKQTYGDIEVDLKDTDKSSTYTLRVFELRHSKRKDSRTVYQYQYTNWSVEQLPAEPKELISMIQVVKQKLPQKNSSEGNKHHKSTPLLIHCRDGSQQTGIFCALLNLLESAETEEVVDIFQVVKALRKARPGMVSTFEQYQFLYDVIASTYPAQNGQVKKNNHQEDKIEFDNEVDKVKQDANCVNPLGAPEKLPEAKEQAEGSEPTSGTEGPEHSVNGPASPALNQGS
Put plainly: flow cytometry, human whole blood; NK [1]. On the technique in general: Flow cytometry measures light scatter and fluorescence of single cells or particles in a stream.

In assay [2] the target is T1, human CD45RC. Put plainly: flow cytometry, human whole blood; NKT [2].
For assay [3], the target named is T1, human CD45RC. Put plainly: flow cytometry, human whole blood; mDC [3].
Assay [4] concerns the target T1, human CD45RC. Put plainly: flow cytometry, human whole blood; pDC [3].
Assay [5] addresses T1, human CD45RC. Put plainly: flow cytometry, human whole blood; ILC1 [2].
The target in assay [6] is T1, human CD45RC. The assay is described as follows: flow cytometry, human whole blood; ILC2 [2].
The target in assay [7] is T1, human CD45RC. Put plainly: flow cytometry, human whole blood; ILC3 [2].
Assay [8] has as its target T1, human CD45RC. Put plainly: flow cytometry, human whole blood; MAIT [2].
In assay [9] the target is T1, human CD45RC. Put plainly: flow cytometry, human whole blood; iNKT [2].
The target of assay [10] is T1, human CD45RC. The assay is described as follows: flow cytometry, human whole blood; CD4+ T [1].
Assay [11] concerns the target T1, human CD45RC. Put plainly: flow cytometry, human whole blood; CD8+ T [1].
For assay [12], the target named is T1, human CD45RC. The assay is described as follows: flow cytometry, human whole blood; B cells [1].
Assay [13] deals with T1, human CD45RC. The assay is described as follows: flow cytometry, human whole blood; T cells [1].
In assay [14] the target is T1, human CD45RC. The assay is described as follows: flow cytometry, human whole blood; Basophils [3].
The target in assay [15] is T1, human CD45RC. The assay is described as follows: flow cytometry, human whole blood; CD3+ TCRab [1].
Assay [16] concerns the target T1, human CD45RC. Put plainly: flow cytometry, human whole blood; CD3+ TCRgd [1].
Assay [17] deals with T1, human CD45RC. The assay is described as follows: flow cytometry, human whole blood; Eosinophils [3].
Assay [18] addresses T1, human CD45RC. The assay is described as follows: flow cytometry, human whole blood; Neutrophils [3].
Assay [19] has as its target T1, human CD45RC. Put plainly: flow cytometry, human whole blood; Monocytes CD14+ [2].
Assay [20] deals with T1, human CD45RC. Put plainly: flow cytometry, human whole blood; Monocytes CD14intCD16+ [3].
Assay [21] deals with T1, human CD45RC. Put plainly: flow cytometry, human whole blood; CD4+ Treg (CD25+CD127-) [1].
The target in assay [22] is T1, human CD45RC. The assay is described as follows: flow cytometry, human whole blood; Monocytes CD14highCD16- [2].
Assay [23] concerns the target macaque CD45RC (cynomolgus macaque). Put plainly: flow cytometry, cynomolgus macaque PBMC, CD3- cells.
The target is the same in assay [24]. The assay is described as follows: flow cytometry, cynomolgus macaque PBMC, CD3+ cells (p-1488).
Assay [25] has the same target. The assay is described as follows: flow cytometry, cynomolgus macaque PBMC, CD3- cells; 10 µg/ml (p-1486).
The target is the same in assay [26]. The assay is described as follows: flow cytometry, cynomolgus macaque PBMC, CD3+ cells (p-1488); 10 µg/ml (p-1486).
Assay [27] deals with T1, human CD45RC. Put plainly: SPR (BIAcore 3000 / T200), ABIS-45RC immobilised on CM5 chip, solubilised membranes of CD45RC-high PBMC or CD45RC-transfected CHO cells as analyte, 25 C, single cycle kinetics. An excerpt: Briefly, 1×10⁷ CD45RC^high PBMCs or CHO cells expressing CD45RC after plasmid transfection were solubilized using the Mem-PER membrane isolation kit (Thermo-fisher).
Background: In SPR one partner is held on a chip, and binding of the other changes the refractive index at the surface.

As to MT2 (antibody), the % of cells CD45RC high was found to be 28.6% with human CD45RC [1]; 34.4% with human CD45RC [2]; 0% with human CD45RC [3]; 1.84% with human CD45RC [4]; 9.3% with human CD45RC [5]; 45% with human CD45RC [6]. In addition, the % of cells CD45RC high with human CD45RC [7] was found to be 50%; with human CD45RC [8] it was 5.89%; with human CD45RC [9], 24.1%; with human CD45RC [10], 3.64%; in the assay with human CD45RC [11], 38.8%; with human CD45RC [12] it was 79.9%. For the same molecule, the % of cells CD45RC high in the assay with human CD45RC [13] amounted to 7.43%; with human CD45RC [14], 0%; in the assay with human CD45RC [15], 8.34%; in the assay with human CD45RC [16], 1.93%; with human CD45RC [17], 0.47%; in the assay with human CD45RC [18], 0.014%. Moreover, the % of cells CD45RC high was found to be 0.43% in the assay with human CD45RC [19], 6.45% with human CD45RC [20], 3.52% with human CD45RC [21] and 0.091% in the assay with human CD45RC [22]. Besides, the % of cells CD45RC low is 70.4% in the assay with human CD45RC [1]; 54.2% with human CD45RC [2]; 14.3% in the assay with human CD45RC [3]; 97.9% with human CD45RC [4]; 27.5% with human CD45RC [5]; 49.5% with human CD45RC [6]. Further, the % of cells CD45RC low in the assay with human CD45RC [7] was found to be 50%; with human CD45RC [8], 71%; in the assay with human CD45RC [9], 61.6%; with human CD45RC [10], 47.2%; in the assay with human CD45RC [11] it was 39.7%; with human CD45RC [12] it was 20.1%. The % of cells CD45RC low in the assay with human CD45RC [13] turned out to be 49.7%; with human CD45RC [14], 7.3%; with human CD45RC [15], 46.2%; with human CD45RC [16] it was 90.6%; in the assay with human CD45RC [17], 90.5%; with human CD45RC [18], 19.3%. In addition, the % of cells CD45RC low was 43.9% in the assay with human CD45RC [19], 87.7% with human CD45RC [20], 19.8% with human CD45RC [21] and 38.3% in the assay with human CD45RC [22]. Besides, the % of cells CD45RC negative stood at 1% with human CD45RC [1]; 11.4% in the assay with human CD45RC [2]; 85.7% in the assay with human CD45RC [3]; 0.23% with human CD45RC [4]; 63.2% with human CD45RC [5]; 5.5% in the assay with human CD45RC [6]. In addition, the % of cells CD45RC negative in the assay with human CD45RC [7] was 0%; with human CD45RC [8], 23.2%; with human CD45RC [9], 14.3%; with human CD45RC [10], 49.2%; with human CD45RC [11], 21.5%; with human CD45RC [12], 0%. Also, the % of cells CD45RC negative with human CD45RC [13] was 42.9%; in the assay with human CD45RC [14], 92.7%; in the assay with human CD45RC [15] it was 45.5%; in the assay with human CD45RC [16], 7.46%; with human CD45RC [17] it was 9.08%; with human CD45RC [18] it was 80.7%. Besides, the % of cells CD45RC negative with human CD45RC [19] turned out to be 55.6%; in the assay with human CD45RC [20], 5.87%; with human CD45RC [21], 76.7%; with human CD45RC [22] it was 61.6%.

With Isotype (antibody), the % of cells CD45RC+ in [23] stood at 2.7%; in [24], 4.37%.

B1: Anti-45RC Variant A (antibody, human IgG1, kappa, V domains shown)
VH: QVQLVQSGAEVKKPGASVKVSCKASGYTFTNYYIGWVRQAPGQGLEWIGDIFPGGDYANSNEKFKGRVTLTADTSISTAYMELSRLRSDDTVVYYCVRRNFDYWGQGTLVTVSS
VL: DIQLTQSPSFLSASVGDRVTITCSASSSVSYMHWFQQKPGKAPKLWIYNTSNLPSGVPSRFSGSGSGTEYTLTISSLQPEDFATYYCQQRSSYPLTFGGGTKVEIKR
With B1, the results for the % of cells CD45RC+ in assay [25] and in [26] were 75.6% and 17.2%, respectively.

B2: Anti-45RC Variant A1 (antibody, human IgG1, kappa, V domains shown)
VH: QVQLVQSGAEVKKPGASVKVSCKASGYTFTNYYIGWVRQAPGQGLEWIGDIFPGGDYTNYAEKFQGRVTLTADTSISTAYMELSRLRSDDTVVYYCVRRNFDYWGQGTLVTVSS
VL: DIQLTQSPSFLSASVGDRVTITCRASSSVSYMHWYQQKPGKAPKLWIYNTSNLPSGVPSRFSGSGSGTEYTLTISSLQPEDFATYYCQQRSSYPLTFGGGTKVEIKR
With B2, the % of cells CD45RC+ stood at 76.3% in assay [25] and 15.6% in assay [26].

B3: Anti-45RC Variant A3 (antibody, human IgG1, kappa, V domains shown)
VH: QVQLVQSGAEVKKPGASVKVSCKASGYTFTNYYIGWVRQAPGQGLEWIGDIFPGGGYTNYAEKFQGRVTLTADTSISTAYMELSRLRSDDTVVYYCVRRNFDYWGQGTLVTVSS
VL: DIQLTQSPSFLSASVGDRVTITCRASSSVSYMHWYQQKPGKAPKLWIYNTSNLPSGVPSRFSGSGSGTEYTLTISSLQPEDFATYYCQQRSSYPLTFGGGTKVEIKR
As to B3, the figures for the % of cells CD45RC+ in assay [25] and in assay [26] were 82.6% and 15.2%, respectively.

B4: ABIS-45RC (antibody, mouse IgG1, kappa, V domains shown)
VH: QVQLQQSGAELVRPGTSVKMSCKAAGYTFTNYYIGWVKQRPGHGLEWIGDIFPGGDYANSNEKFKGKATLTADTSSSTAYMQLSSLTSEDSAIYYCVRRNFDYWGQGTTLTVSS
VL: QIVLTQSPTIMSASPGEKVTITCSASSSVSYMHWFQQKTGTSPRLWIYNTSNLPSGVPARFSGSGSGTSYSLTISRMEAEDAATYYCQQRSSYPLTFGAGTKLELKR
notes: the variable domains are the same; also called murine ABIS-45RC; murine anti-hCD45RC antibody of the invention
A word on the Kd: it is the free concentration of one partner at which half of the binding sites on the other are occupied at equilibrium, for simple one-to-one binding. Higher therefore signals lower affinity. Usually koff stands for the rate constant with which the complex falls apart. Higher therefore signals fast dissociation. For orientation: kon means the second-order rate constant of association. Higher therefore signals fast association. In turn, B4 gave a % of cells CD45RC+ in assay [25] of 74.1%. Further, in assay [26], the % of cells CD45RC+ worked out at 26.1%. Also, in the assay with human CD45RC [27], binding was characterised by a dissociation constant (Kd) of 50 nM, the koff was 0.0144 s⁻¹ and the on-rate constant (kon) was found to be 291000 M⁻¹ s⁻¹.

The values above are taken from US20250122300A1 (INSERM INSTITUT NATIONAL DE LA SANT ET DE LA RECHERCHE M …, published 2025).
